The series concerns the target rPrP23-231 (full-length mature recombinant prion protein) (mouse, UniProt P04925 23-231). Put plainly: fluorescence anisotropy.

Sequence of rPrP23-231 (full-length mature recombinant prion protein) (P04925 23-231): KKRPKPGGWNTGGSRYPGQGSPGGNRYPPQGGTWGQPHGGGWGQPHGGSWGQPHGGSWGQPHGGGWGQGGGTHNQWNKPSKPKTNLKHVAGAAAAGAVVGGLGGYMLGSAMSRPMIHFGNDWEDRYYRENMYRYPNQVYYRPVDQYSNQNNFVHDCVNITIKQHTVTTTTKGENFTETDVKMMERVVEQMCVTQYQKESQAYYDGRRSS

Take AAACAUGGGUUCCCAUGU (structured_RNA) [opRNA]: the binding result was “binds”.

For the origin of these results see PMC2443653.
